Experimental data reported in the DeepSol protein solubility set.

Experiment: soluble on expression in E. coli; label from the status in PepcDB or PDB records

Sequence | soluble on expression in E. coli
MNERDIICAGCGVKIQTESKEMLGYTPPSALKRDVIICQRCFRMQHYNEVQDVSLTDDDFLKILHTIGERKALIVKLVDIFDFNGSWLPGLHRFVGGNDVLLIGNKVDLLPKSVNRNRMINWMRKSAKDLGLKPIDVALISGEKGIGVKEVASLIDRLRKGKDVYVVGATNVGKSTFINKMIQIFGGDEEQMITTSHFPGTTLDMIDIPLDDGKTLYDTPGIINHHQMAHYVAKNELKLITPKKEIKPKVFQLNEEQTLFFGGLARFDFVKGERTSFVCYVSNDLFIHRTKLEKADELYEKRLGDVLTPPEDPQHLPSLVKHEFTIRVQKVDVVISGLGWVTVNGTNVKVCAYAPEGVGVSIRESLILEHHHHHH | soluble
MNERIFRENTRPVQVGNLTIGGSEELTIQSMTTTKTHDVEATVAEIHRLEEVGCQIVRVACPDERAANALSAIKKRIHIPLVADIHFDYRLALKAIDAGVDKIRINPGNIGRRDRVEKVVNAAKAKNIPIRIGVNAGSLEKKIIQKYGYPTAEGMVESALAHIKILEDLDFYDIIVSLKASDVNLAIEAYDKASRAFNYPLHLGITESGTQFAGGIKSAAGLGAILSLGIGNTLRVSLSADPVEEIKVAREVLKSFGLSSNAAMLISCPTCGRIEIDLIRIANEVENYIATIKAPIKVAVLGCAVNGPGEAREADIGIAGSNGEGLLFRHGKIIRKVPEAIMVEELKKEIDILAEEYFEKKTDLESLR | not soluble
MNFHVMLTSSHETSFNFVVLLRANSKMKQQRNACRSCRLKECIKVGMNPRAVQGDIDTASTSSASPNLVSVEMHPYTNFREVECQTEVSTISSHPTSPSTLPFVSSGSSICSVSSSCSSVSTVYSNCLAMLPPNPSLPKYDYLLASLSRIFERVDEHAPEPLPNTYSFEHAFYNPHLICNRTKLTPTGERIATLPEVLQDFRRIFVLFTDVLSILPEFSRLDESDRMVLAKSRFSFFYWWLTCCWTAKVGCPGVCYANGAYHPSDKRQQAFPDVKGVTELSVETVSKPLANINITDAEMLVGSVFAIFYEYPLPPKVSYASTHILNEARDLYTQCMITVSPYSQLEAKSASRLAEISLIFSSITNLKYLTSDNIELSDVLHVMEVDQLITEAFDVHRPME | not soluble
MNFLSEQLLAHLNKEQQEAVRTTEGPLLIMAGAGSGKTRVLTHRIAYLMAEKHVAPWNILAITFTNKAAREMRERVQSLLGGAAEDVWISTFHSMCVRILRRDIDRIGINRNFSILDPTDQLSVMKTILKEKNIDPKKFEPRTILGTISAAKNELLPPEQFAKRASTYYEKVVSDVYQEYQQRLLRNHSLDFDDLIMTTIQLFDRVPDVLHYYQYKFQYIHIDEYQDTNRAQYTLVKKLAERFQNICAVGDADQSIYRWRGADIQNILSFERDYPNAKVILLEQNYRSTKRILQAANEVIEHNVNRKPKRIWTENPEGKPILYYEAMNEADEAQFVAGRIREAVERGERRYRDFAVLYRTNAQSRVMEEMLLKANIPYQIVGGLKFYDRKEIKDILAYLRVIANPDDDLSLLRIINVPKRGIGASTIDKLVRYAADHELSLFEALGELEMIGLGAKAAGALAAFRSQLEQWTQLQEYVSVTELVEEVLDKSGYREMLKAERTIEAQSRLENLDEFLSVTKHFENVSDDKSLIAFLTDLALISDLDELDGTEQAAEGDAVMLMTLHAAKGLEFPVVFLIGMEEGIFPHNRSLEDDDEMEEERRLAYVGITRAEEELVLTSAQMRTLFGNIQMDPPSRFLNEIPAHLLETASRRQAGASRPAVSRPQASGAVGSWKVGDRANHRKWGIGTVVSVRGGGDDQELDIAFPSPIGIKRLLAKFAPIEKV | soluble
MNGKVIIVTGGSSGMGKYMAKRFVSDGANVVITGRRAEALEEAKREIAAPDGGKVLTIPMDVRNPEQVAHMVERTDAEFGRIDALINNAAGNFICPAEKLSINGWNSVINIVLNGTFYCSREVGNYWIQRGLKGNIINIVATYAWHAGAGVIHSASAKAGVLAMTRTLAVEWGKKYGFRVNAIAPGPIERTGGAERLWESEEAERMTLESVPLGRLGTPEEIAAVASFLLSDEAAYINGACITVDGGQWLNRRPF | soluble
MNHLPVVGEDYVEIPDGRPFAPLAGKIEVVEIFGYTCPHCAHFDSKLQAWGARQAKDVRFTLVPAVFGGVWDPFARAYLAADVLGVAKRSHTAMFEAIHEKGSVPIQNVGPDELAVFYAGYGVQPDRFVATFNGPEVEKRFQAARAYALKVRPVGTPTIVVNGRYMVTGHDFEDTLRITDYLVSRERAASHGR | soluble
